Measurements published in patent US20230203200A1.

B1: PRAME-004 targeting TCER® molecule with the recruiting domains of humanized UCHT1(V17) (protein)
chain 1: QKEVEQNSGPLSVPEGAIASLNCTYSDRGSQSFFWYRQYSGKSPELIMSIYSNGDKEDGRFTAQLNKASQYVSLLIRDSQPSDSATYLCAAVIDNDQGGILTFGTGTRLTIIPNIQNGGGSGGGGDIQMTQSPSSLSASVGDRVTITCRASQDIRNYLNWYQQKPGKAPKLLIYYTSRLHSGVPSRFSGSGSGTDYTLTISSLQPEDIATYFCQQGQTLPWTFGQGTKVEIKEPKSSDKTHTCPPCPAPPVAGPSVFLFPPKPKDTLMISRTPEVTCVVVDVSHEDPEVKFNWYVDGVEVHNAKTKPREEQYQSTYRVVSVLTVLHQDWLNGKEYKCKVSNKALPASIEKTISKAKGQPREPQVYTLPPCRDELTKNQVSLWCLVKGFYPSDIAVEWESNGQPENNYKTTPPVLDSDGSFFLYSKLTVDKSRWQQGNVFSCSVMHEALHNHYTQKSLSLSPGK
chain 2: EVQLVQSGAEVKKPGASVKVSCKASGYSFTGYTMNWVRQAPGQGLEWMGLINPYKGVSTYAQKFQDRVTLTVDKSTSTAYMELSSLRSEDTAVYYCARSGYYGDSDWYFDVWGQGTLVTVSSGGGSGGGGKAGVTQTPRYLIKTRGQQVTLSCSPIPGHRAVSWYQQTPGQGLQFLFEYVHGEERNKGNFPGRFSGRQFSNSSSEMNISNLELGDSALYLCASSPWDSPNVQYFGPGTRLTVTEDLKNEPKSSDKTHTCPPCPAPPVAGPSVFLFPPKPKDTLMISRTPEVTCVVVDVSHEDPEVKFNWYVDGVEVHNAKTKPREEQYQSTYRVVSVLTVLHQDWLNGKEYKCKVSNKALPASIEKTISKAKGQPREPQVCTLPPSRDELTKNQVSLSCAVKGFYPSDIAVEWESNGQPENNYKTTPPVLDSDGSFFLVSKLTVDKSRWQQGNVFSCSVMHEALHNHYTQKSLSLSPGK
B2: PRAME-004 targeting TCER® molecule with the recruiting domains of humanized BMA031(V10) (protein)
chain 1: QIQMTQSPSSLSASVGDRVTITCSATSSVSYMHWYQQKPGKAPKRWIYDTSKLASGVPSRFSGSGSGTDYTLTISSLQPEDAATYYCQQWSSNPLTFGGGTKVEIKGGGSGGGGKAGVTQTPRYLIKTRGQQVTLSCSPIPGHRSVSWYRQTPGQGLQFLFEYVHGEERNKGNFPGRFSGRQFSNSSSEMNISNLELGDSALYLCASSPWDSPNVQYFGPGTRLTVTEDLKNEPKSSDKTHTCPPCPAPPVAGPSVFLFPPKPKDTLMISRTPEVTCVVVDVSHEDPEVKFNWYVDGVEVHNAKTKPREEQYQSTYRVVSVLTVLHQDWLNGKEYKCKVSNKALPASIEKTISKAKGQPREPQVYTLPPCRDELTKNQVSLWCLVKGFYPSDIAVEWESNGQPENNYKTTPPVLDSDGSFFLYSKLTVDKSRWQQGNVFSCSVMHEALHNHYTQKSLSLSP
chain 2: QKEVEQNSGPLSVPEGAIASLNCTYSDRGSQSFFWYRQYSGKSPELIMSIYSNGDKKDGRFTAQLNKASQYVSLLIRDSQPSDSATYLCAAVIDNDQGGILTFGTGTRLTIIPNIQNGGGSGGGGEVQLVQSGAEVKKPGASVKVSCKASGYKFTSYVMHWVRQAPGQGLEWMGYINPYNDVTKYAEKFQGRVTLTSDTSTSTAYMELSSLRSEDTAVHYCARGSYYDYDGFVYWGQGTLVTVSSEPKSSDKTHTCPPCPAPPVAGPSVFLFPPKPKDTLMISRTPEVTCVVVDVSHEDPEVKFNWYVDGVEVHNAKTKPREEQYQSTYRVVSVLTVLHQDWLNGKEYKCKVSNKALPASIEKTISKAKGQPREPQVCTLPPSRDELTKNQVSLSCAVKGFYPSDIAVEWESNGQPENNYKTTPPVLDSDGSFFLVSKLTVDKSRWQQGNVFSCSVMHEALHNHYTQKSLSLSP

Experiments:
[1] = target: CD3 (CD3ε/δ-complex) on T cells (human) (UniProt P07766); assay: flow cytometry on Jurkat cells (CD3+ and TCRab+), PE-labeled secondary reagent
Chain of UniProt P07766 (P07766 23-207, stated change not applied, chain 1 of 2): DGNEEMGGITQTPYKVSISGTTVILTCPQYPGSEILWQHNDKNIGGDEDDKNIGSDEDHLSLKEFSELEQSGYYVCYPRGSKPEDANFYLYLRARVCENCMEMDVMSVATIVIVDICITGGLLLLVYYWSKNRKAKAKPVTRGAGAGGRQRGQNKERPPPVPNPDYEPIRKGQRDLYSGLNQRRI
Chain of UniProt P07766 (P04234 22-171, stated change not applied, chain 2 of 2, further chain): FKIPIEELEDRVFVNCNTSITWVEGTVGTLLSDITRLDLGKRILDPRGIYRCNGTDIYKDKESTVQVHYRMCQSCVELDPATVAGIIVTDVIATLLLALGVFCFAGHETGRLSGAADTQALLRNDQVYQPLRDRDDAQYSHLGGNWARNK

[2] = target: CD3 (CD3ε/δ-complex) on T cells (human) (UniProt P07766); assay: flow cytometry on Jurkat cells (CD3+, TCRab+), bound TCER stained with a PE-labeled secondary reagent
[3] = target: TCR alpha/beta on Jurkat cells (human); assay: flow cytometry on Jurkat cells (CD3+ and TCRab+), PE-labeled secondary reagent

Row | Binder | EC50 [1] | EC50 (read off the curve) [2] | fold weaker binding than the UCHT1-based TCER®-molecule [3]
1 | B1 | 2 to 3 nM | 2 nM | 
2 | B2 |  |  | 50 to 100 fold
